The target in data set [1] is T1, hMcm10-ID (Homo sapiens, UniProt Q7L590).
T1 construct: hMcm10-ID (residues 237 to 436) were expressed in E. coli strain BL21(DE3); 6xHis (HRV 3C site) (N, cleaved yes); made in house; host or cells: E. coli BL21(DE3)
T1 sequence (Q7L590 237-436): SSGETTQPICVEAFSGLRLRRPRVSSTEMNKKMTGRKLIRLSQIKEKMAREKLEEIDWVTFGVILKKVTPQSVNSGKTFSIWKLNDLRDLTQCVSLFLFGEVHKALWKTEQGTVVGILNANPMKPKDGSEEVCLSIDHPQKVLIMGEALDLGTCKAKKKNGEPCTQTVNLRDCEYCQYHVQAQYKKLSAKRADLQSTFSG
The data set is described as follows: FP saturation binding of probe to hMcm10-ID. The settings on record: probe 12.5 nM, mean ± SEM, n = 3. How it is done: (§1) The LOPAC pilot screen identified the sulfhydryl reagent 4-chloromercuribenzoic acid as an inhibitor in the fluorescence polarization (FP) assay. As there was no known Mcm10 inhibitor, 4-chloromercuribenzoic acid (30 μM) was used as a positive control on initial screening plates. Following the discovery of suramin as a Mcm10 inhibitor, suramin (7 μM) was used as a positive control on subsequent screening plates. To confirm activity, screening hits were tested in dose response experiments (8 concentrations in duplicate) using xMcm10-ID. Similar dose response experiments were conducted with suramin and its analogs to confirm activity for hMcm10-ID (1 μM) and xMcm10-FL (2 μM) and to determine selectivity relative to RPA70AB (0.4 μM). […] FP was measured in mP units, and ∆mP values for each well were calculated as the difference between the measured mP and the average of the “probe only” controls. […] The parallel and perpendicular mP values were also used to calculate total fluorescence intensity (TFI) determined by the sum of parallel mP + (2 x perpendicular mP). TFI was used to detect fluorescence interference by compounds [1]. […] IC50 values were calculated using the four parameter logistic equation in Prism 6.0 (GraphPad). […] KD values were calculated using the one site or two site binding equations in Prism 6.0 (GraphPad). […]

The target in the next data set is T2, human RPA70AB (Homo sapiens, UniProt P27694).
T2 construct: recombinant human RPA70AB (181-422) in a pSV281 vector; 6xHis (TEV site) (N, cleaved yes); made in house; host or cells: Escherichia coli BL21(DE3)
T2 sequence (P27694 181-422): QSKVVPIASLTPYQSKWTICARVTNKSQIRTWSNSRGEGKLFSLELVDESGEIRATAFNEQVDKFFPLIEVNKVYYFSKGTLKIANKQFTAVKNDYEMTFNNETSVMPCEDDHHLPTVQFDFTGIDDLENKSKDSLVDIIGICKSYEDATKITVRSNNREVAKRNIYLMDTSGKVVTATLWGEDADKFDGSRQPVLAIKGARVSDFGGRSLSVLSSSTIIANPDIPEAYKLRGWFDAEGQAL
The data set is described as follows: FP saturation binding of probe to RPA70AB. The settings on record: probe 12.5 nM, mean ± SEM, n = 3, listed as 5′-6FAM DNA probe. How it is done: as §1

In another data set the target is RPA70AB (Homo sapiens, UniProt P27694 181-422). The data set can be described thus: fluorescence polarization; FP: 20 mM Tris-HCl, 100 mM NaCl, 5% glycerol, 0.01% Triton, pH 7.5, RT 60 min, 12.5 nM probe (0.1% DMSO in HTS). The settings on record: protein: recombinant; label: 5'-6-FAM; single strand.
RPA70AB, sequence (P27694 181-422): as above
The next data set has as its target T3, xMcm10-FL (Xenopus laevis, UniProt Q5EAW4 1-860).
T3 sequence: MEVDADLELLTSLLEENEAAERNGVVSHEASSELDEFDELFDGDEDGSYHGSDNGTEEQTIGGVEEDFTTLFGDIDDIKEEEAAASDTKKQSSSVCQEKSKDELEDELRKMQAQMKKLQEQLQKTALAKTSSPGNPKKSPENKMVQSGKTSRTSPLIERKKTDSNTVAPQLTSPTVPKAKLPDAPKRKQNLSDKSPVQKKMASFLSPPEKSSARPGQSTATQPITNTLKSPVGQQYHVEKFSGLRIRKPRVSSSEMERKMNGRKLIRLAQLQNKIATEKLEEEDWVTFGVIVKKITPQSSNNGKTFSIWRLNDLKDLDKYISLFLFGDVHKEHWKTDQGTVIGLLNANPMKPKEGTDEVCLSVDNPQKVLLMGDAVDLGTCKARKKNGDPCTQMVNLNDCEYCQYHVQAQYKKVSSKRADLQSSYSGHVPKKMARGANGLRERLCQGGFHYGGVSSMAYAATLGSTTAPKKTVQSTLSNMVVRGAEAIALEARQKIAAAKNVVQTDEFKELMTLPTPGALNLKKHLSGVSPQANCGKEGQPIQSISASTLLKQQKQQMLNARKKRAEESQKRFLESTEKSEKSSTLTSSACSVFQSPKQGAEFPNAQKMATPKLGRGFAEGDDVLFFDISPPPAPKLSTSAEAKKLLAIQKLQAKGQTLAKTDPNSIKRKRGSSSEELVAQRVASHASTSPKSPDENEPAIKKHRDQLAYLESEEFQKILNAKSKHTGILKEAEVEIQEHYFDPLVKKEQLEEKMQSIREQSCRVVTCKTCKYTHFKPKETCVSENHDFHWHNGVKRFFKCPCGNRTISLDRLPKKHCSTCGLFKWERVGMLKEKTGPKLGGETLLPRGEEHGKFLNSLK
The description is as above. To be noted: protein: recombinant; label: 5'-6-FAM; single strand.

A further data set has as its target T4, xMcm10-ID (Xenopus laevis, UniProt Q5EAW4 229-427).
T4 sequence: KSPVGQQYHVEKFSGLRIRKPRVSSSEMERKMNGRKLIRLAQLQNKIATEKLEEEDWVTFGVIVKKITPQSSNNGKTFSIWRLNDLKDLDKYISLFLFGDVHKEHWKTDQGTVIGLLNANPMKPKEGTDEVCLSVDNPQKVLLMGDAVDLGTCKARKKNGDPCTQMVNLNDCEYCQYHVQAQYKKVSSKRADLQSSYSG
The data set is described as above. The settings on record: protein: recombinant; label: 5'-6-FAM; single strand.

For data set [2], the target named is T5, hMcm10-ID (Homo sapiens, UniProt Q7L590 237-436).
T5 sequence: T1 sequence (Q7L590 237-436)
The description is as above. To be noted: protein: recombinant; label: 5'-6-FAM; single strand.

This is an account of results in publication PMC6731595, “The anti-parasitic agent suramin and several of its analogues are inhibitors of the DNA binding protein Mcm10” (Open Biology, 2019).

{FAM} = 6-carboxyfluorescein (6FAM) label

As usually defined, the Kd is the free concentration of one partner at which half of the binding sites on the other are occupied at equilibrium, for simple one-to-one binding. As for “5′-6-FAM-ATGGTAGGCA (DNA, 5' {FAM}, backbone and methylation of C not given here) [5’-6-FAM 10-mer ssDNA, 5′-6-carboxyfluorescein 10-mer DNA FP probe]”, the “KD of FP probe for hMcm10-ID” value with hMcm10-ID [1] was “low micromolar affinity”. Also, the Kd in the data set with human RPA70AB amounted to 400 nM.

ATGGTAGGCA (ssDNA) [5'-6FAM 10-mer]: the Kd with RPA70AB amounted to 370 nM; with xMcm10-FL, 1100 nM; with xMcm10-ID, 1300 nM; with hMcm10-ID [2], 2290 nM.
